Test results: paper PMC12691643

B1: Git2, endogenous in murine DC2.4 cells (natural protein)
chain: MSKRLRSSDVCADCNGPDPSWASVNRGTFICDECCSVHRSLGRHISQVRHLKHTAWPPTLLQMVETLYNNGANSIWEHSLLDPASIMSGRRKANPQDKVHPNKAEFIRAKYQMLAFVHRLPCREDDSVTAKDLSKQLHSSVRTGNLETCLRLLSLGAQANFFHPEKGSTPLHVASKAGQILQAELLAVYGADPGTQDSSGKTPVDYARQGGHHELAERLIEIQYELTDRLAFYLCGRKPDHKSGQHFLIPQRADSLDLSELAKAAKKKLQSLSNHLFEELAMDVYDEVDRRETDAVWLATQNHSTLVTETTVVPFLPVNPEYSSTRNQGRQKLARFNAHEFATLVIDILSDAKRRQQGSPLSRSKDNVELILRTVSTQHSTESQDNDQPDYDSVASDEDTDVETRASKANRQKLQTLQSENSSLRRQATASACQVQTGSDHKDTASHSSLKRRPSARGSRPMSMYETGSGQKPYLPMGEASHPEESRTRLQPFPTHIGRSALVTSSSSLPSFPSTLSWSRDESARRASRLEKQNSTPESDYDNTACDPEPDDTGSTRKGRQRSMLWQGDGLLPDTAEPHSVPSPTLPSTEDVIRKTEQITKNIQELLRAAQENKHDSYIPCSERIHVAVTEMAALFPKKPKSDTVRTSLRLLTSSAYRLQSECRKALPGDSSLPTDVQLVTQQVIQCAYDIAKAAKQLVTITTKENSS
B2: Shp2 (Ptpn11), endogenous in murine DC2.4 cells (natural protein)
chain: MTSRRWFHPNITGVEAENLLLTRGVDGSFLARPSKSNPGDFTLSVRRNGAVTHIKIQNTGDYYDLYGGEKFATLAELVQYYMEHHGQLKEKNGDVIELKYPLNCADPTSERWFHGHLSGKEAEKLLTEKGKHGSFLVRESQSHPGDFVLSVRTGDDKGESNDGKSKVTHVMIRCQELKYDVGGGERFDSLTDLVEHYKKNPMVETLGTVLQLKQPLNTTRINAAEIESRVRELSKLAETTDKVKQGFWEEFETLQQQECKLLYSRKEGQRQENKNKNRYKNILPFDHTRVVLHDGDPNEPVSDYINANIIMPEFETKCNNSKPKKSYIATQGCLQNTVNDFWRMVFQENSRVIVMTTKEVERGKSKCVKYWPDEYALKEYGVMRVRNVKESAAHDYTLRELKLSKVGQGNTERTVWQYHFRTWPDHGVPSDPGGVLDFLEEVHHKQESIVDAGPVVVHCSAGIGRTGTFIVIDILIDIIREKGVDCDIDVPKTIQMVRSQRSGMVQTEAQYRFIYMAVQHYIETLQRRIEEEQKSKRKGHEYTNIKYSLVDQTSGDQSPLPPCTPTPPCAEMREDSARVYENVGLMQQQRSFR

Experiments:
Assay in all cases: affinity purification with mass spectrometry; HA-tagged TgWIP variants pulled down by the HA tag from lysates of DC2.4 cells infected 4 h at MOI 7; host partners by mass spectrometry; values are negative fold changes in peptide counts of the mutant immunoprecipitations relative to TgWIP^WT
[1] = molecular target: TgWIP^(PRR2 mut), HA-tagged (Toxoplasma gondii)
[2] = molecular target: TgWIP^(PRR3 mut), HA-tagged (Toxoplasma gondii)
[3] = molecular target: TgWIP^(WIRS mut), HA-tagged (Toxoplasma gondii)
[4] = molecular target: TgWIP^Y150A/Y199A, HA-tagged (Toxoplasma gondii)

| Molecule | negative fold change in peptide counts relative to TgWIP^WT [1] [fold] | negative fold change in peptide counts relative to TgWIP^WT [2] [fold] | negative fold change in peptide counts relative to TgWIP^WT [3] [fold] | negative fold change in peptide counts relative to TgWIP^WT [4] [fold] |
| --- | --- | --- | --- | --- |
| Lrrk1, endogenous in murine DC2.4 cells (from UniProt Q3UHC2 1-2014) (natural protein) | 3 | 3 | 1 | 1 |
| Wasf2 (Wave2), endogenous in murine DC2.4 cells (from UniProt Q8BH43 1-497) (natural protein) | 3 | 15 | 3 | 2 |
| Shp1 (Ptpn6), endogenous in murine DC2.4 cells (from UniProt P29351 1-595) (natural protein) | 3 | 3 | 2 | 32 |
| Pstpip1, endogenous in murine DC2.4 cells (from UniProt P97814 1-415) (natural protein) | 8 | 5 | 1 | 1 |
| Cyfip2, endogenous in murine DC2.4 cells (from UniProt Q5SQX6 1-1253) (natural protein) | 3 | 5 | 2 | 2 |
| B1 | 2 | – | 2 | 3 |
| B2 | 3 | – | – | 39 |
